Source: PMC3643586 (Nucleic Acids Research, 2013)
“And” between values parts separate entries of the source, which are not always exact repeats. Equal entries are not always repeated. Where two headings read alike, the source gives them in different places.

T1: Bacillus stearothermophilus DnaB helicase (Bacillus stearothermophilus, UniProt Q9X4C9 1-454)
T1 sequence (looked up): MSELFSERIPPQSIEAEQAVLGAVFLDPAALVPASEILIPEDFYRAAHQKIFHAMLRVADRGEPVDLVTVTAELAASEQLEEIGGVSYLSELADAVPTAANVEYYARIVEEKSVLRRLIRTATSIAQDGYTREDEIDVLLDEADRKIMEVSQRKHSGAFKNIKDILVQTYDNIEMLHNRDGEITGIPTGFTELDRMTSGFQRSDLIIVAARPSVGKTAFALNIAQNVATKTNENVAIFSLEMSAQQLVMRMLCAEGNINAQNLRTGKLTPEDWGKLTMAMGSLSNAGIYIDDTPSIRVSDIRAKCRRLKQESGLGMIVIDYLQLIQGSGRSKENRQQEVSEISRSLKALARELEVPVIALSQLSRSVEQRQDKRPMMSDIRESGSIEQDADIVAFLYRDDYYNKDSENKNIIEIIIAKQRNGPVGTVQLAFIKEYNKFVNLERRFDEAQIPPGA

B1: Bacillus subtilis clamp-loader τ subunit (natural protein, UniProt P09122 1-563, looked up)
chain: MSYQALYRVFRPQRFEDVVGQEHITKTLQNALLQKKFSHAYLFSGPRGTGKTSAAKIFAKAVNCEHAPVDEPCNECAACKGITNGSISDVIEIDAASNNGVDEIRDIRDKVKFAPSAVTYKVYIIDEVHMLSIGAFNALLKTLEEPPEHCIFILATTEPHKIPLTIISRCQRFDFKRITSQAIVGRMNKIVDAEQLQVEEGSLEIIASAADGGMRDALSLLDQAISFSGDILKVEDALLITGAVSQLYIGKLAKSLHDKNVSDALETLNELLQQGKDPAKLIEDMIFYFRDMLLYKTAPGLEGVLEKVKVDETFRELSEQIPAQALYEMIDILNKSHQEMKWTNHPRIFFEVAVVKICQTSHQSAADLPEVDMLMKKIQQLEQEVERLKTTGIKAAAESPKKEAPRVPKGGKSNYKAPVGRIHEILKEATRPDLDLLRNSWGKLLAHLKQQNKVSHAALLNDSEPVAAGSAAFVLKFKYEIHCKMVAEDNNGVRTNLEQILESMLGKRMDLIGVPEAQWGKIREEFLEDHQQENEGSNEPAEEDPLIAEAKKLVGADLIEIKD
B2: Bacillus subtilis clamp-loader δ′ subunit (holB) (natural protein, UniProt P37540 1-329, looked up)
chain: MAISWKEMNELQPRVMKLLYNSIEKDRLSHAYLFEGKKGTGKLDAALLLAKSFFCLEGGAEPCESCRNCKRIESGNHPDLHLVQPDGLSIKKAQIQALQEEFSKTGLESHKKLYIISHADQMTANAANSLLKFLEEPNKDTMAVLITEQPQRLLDTIISRCQTLPFQPLQPKAIEDRLIEQDVSPHMARLLANMTNNVAEAVELSRNDEFAESRAKVIKLYEVLHQRKGHAFFFIQDQWMPFFKEKTHQEMGLDMLLLIYRDVLSIQIGNEDKLIYQDLFQSIKQHALQSTQQSVTNQILAVLEAKKRLHSNVNVQGLMEHLVLMLQEG
B3: Bacillus subtilis clamp-loader δ subunit (yqeN) (natural protein, UniProt P54459 1-347, looked up)
chain: MVFDVWKSLKKGEVHPVYCLYGKETYLLQETVSRIRQTVVDQETKDFNLSVFDLEEDPLDQAIADAETFPFMGERRLVIVKNPYFLTGEKKKEKIEHNVSALESYIQSPAPYTVFVLLAPYEKLDERKKLTKALKKHAFMMEAKELNAKETTDFTVNLAKTEQKTIGTEAAEHLVLLVNGHLSSIFQEIQKLCTFIGDREEITLDDVKMLVARSLEQNIFELINKIVNRKRTESLQIFYDLLKQNEEPIKIMALISNQFRLILQTKYFAEQGYGQKQIASNLKVHPFRVKLAMDQARLFSEEELRLIIEQLAVMDYEMKTGKKDKQLLLELFLLQLLKRNEKNDPHY

What was measured:
Assay in all cases: native MS
[1] = target: Bacillus subtilis clamp-loader δ subunit (yqeN) (Bacillus subtilis) (UniProt P54459)
[2] = target: the molecule itself
[3] = target: the molecule itself; remark: listed apart in the source
[4] = target: T1, Bacillus stearothermophilus DnaB …
[5] = target: B1
[6] = target: the molecule itself; remark: listed apart in the source
[7] = target: B1; remark: listed apart in the source
[8] = target: B1; remark: listed apart in the source

For “Bacillus subtilis clamp-loader δ subunit (yqeN) (from UniProt P54459 1-347) (natural protein)”, the stoichiometry N (subunits in the oligomer) [1] was 2.

With B1 the “stoichiometry N” value [2] was 3 subunits in the oligomer and 2 subunits in the oligomer and 5 subunits in the oligomer, the “stoichiometry N” value [3] was 4 subunits in the oligomer and the “stoichiometry N” value [4] was 3 τ per DnaB hexamer.

In the case of B2, the “stoichiometry N” value [5] is reported as 3 τ per δ′ and 2 τ per δ′ and the “stoichiometry N” value [6] is reported as 2 subunits in the oligomer.

In the case of B3, the “stoichiometry N” value [7] is reported as 2 τ per δ and the “stoichiometry N” value [8] is reported as 3 τ per δ.
